Tests used:
[1] = biological target: Pyrococcus furiosus MCM N-terminal domain (PfMCM 1-256) (Pyrococcus furiosus) (UniProt Q8U3I4); test: crystal structure; PfMCMN with 30-mer poly-dT ssDNA; hanging drop, 18°C, 50 mM MES pH 6.0, 10 mM Mg(OAc)2, 28.5% PEG 3350; 3.2 Å; two hexamers in the asymmetric unit
[2] = biological target: Pyrococcus furiosus MCM N-terminal domain (PfMCM 1-256) (Pyrococcus furiosus) (UniProt Q8U3I4); test: crystal structure; PfMCMN without DNA; sitting drop, 18°C, 0.2 M sodium malonate pH 7.0, 20% PEG 3350; 2.65 Å; one hexamer in the asymmetric unit
PfMCMN WT [3] = biological target: T1, PfMCMN WT (Pyrococcus furiosus, UniProt Q8U3I4 1-256); test: EMSA; 5 mM Mg2+; EMSA: 20 mM HEPES pH 7.6, 200 mM NaCl, 5 mM MgCl2, 5 mM bME, 25 C, 30 min, 160 nM DNA; 4-20% TBE PAGE; settings: protein: recombinant, tags: His6-SUMO removed by Ulp1, in-frame BamHI site may leave extra N-terminal residues
T1 sequence: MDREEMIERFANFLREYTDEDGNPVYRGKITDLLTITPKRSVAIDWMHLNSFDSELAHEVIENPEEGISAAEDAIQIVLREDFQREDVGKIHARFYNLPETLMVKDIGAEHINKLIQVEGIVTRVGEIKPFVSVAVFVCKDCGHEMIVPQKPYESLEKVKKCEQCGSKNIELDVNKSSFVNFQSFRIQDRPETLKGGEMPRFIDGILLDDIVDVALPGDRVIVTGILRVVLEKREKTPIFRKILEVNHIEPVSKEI

PfMCMN WT [4] = biological target: T1, PfMCMN WT; test: crystal structure (3.2 A); 10 mM Mg(OAc)2 in well solution; Zn-binding subdomain; EMSA: 20 mM HEPES pH 7.6, 200 mM NaCl, 5 mM MgCl2, 5 mM bME, 25 C, 30 min, 160 nM DNA; 4-20% TBE PAGE; settings: protein: recombinant; tags: His6-SUMO removed by Ulp1; in-frame BamHI site may leave extra N-terminal residues

Question: What does the source list for “Pyrococcus furiosus MCM N-terminal domain (PfMCM 1-256) (from UniProt Q8U3I4 1-256) (domain or fragment)”?
Answer: stoichiometry N [1]: 6; stoichiometry N [2]: 6

Question: Which “apparent K (half saturation)” value (PfMCMN WT [3]; label: 5'-fluorescein) does the source give for TTTTTTTTTTTTTTTTTTTTTTTTTTTTTTTTTTTTTTTT (ssDNA) [T40 ssDNA] here?
Answer: 6.8 µM

B1: 26-mer dsDNA (dsDNA)
DNA 1: ATGGCAGATCTCAATTGGATATCGGC
DNA 2: GCCGATATCCAATTGAGATCTGCCAT
Question: B1 was tested. Which “apparent K (half saturation)” value (PfMCMN WT [3]; label: 5'-fluorescein on strand 1, blunt) did it give?
Answer: 7 µM

Question: Does TTTTTTTTTTTTTTTTTTTTTTTTTTTTTT (ssDNA) [poly-dT 30-mer] bind (PfMCMN WT [4])?
Answer: binds

— publication PMC3970758, “A conserved MCM single-stranded DNA binding element is essential for replication initiation”
